Measurements as given in a protein production outcome set (Wang et al. 2014).

Experiment: label from the status in PepcDB records
With “MTDKRGNNGKTGLLFPAIFTIFVSIYAAGNYYVGLRFFQSIQSLIEPYSLFYWSGYAFLVISLFAGRLGKRFYPGYVNDLFAVTGNYWVGAVYYSLLIWAGIDVLHFLTSLIFPATRIIKYPSFYFGLAVLLLVFLLLLYGTWNARHPRIVHYDITIKKSVPDLPELHAVMVSDIHLGLVVDKDRLKEMVNRINELDPDVVFLAGDTIDEDVRLFASNKMPEILKKLKSRYGVYAVLGNHEYIGGNNELAVEYLQQAGIHVLVDKCIKVNNHFYVAGRDDRVAGRMNGKKRLELSRLVDGIDHTLPIILLDHQPINLKEGQLNGIDLQLSGHTHAGQFFPNTLISKRVFENSWGYLKKGECQIIVSAGFGTWGPPIRIGSNSEITDIKISFV” the protein production was “failed”. In the case of “MTDLEHAVESNRRAWDASADSHLRGGGWQELSLAVQETGFSCLDETLAGVLRNLDLAGKAAVQVGCNNGREVLSLYAFGVARAVGIDQSAAFLAQARQLAERSPHQPRFVEANAYELPAELNGQFDLLLITIGVLNWMPDIARFFASVSGLLKPGGQLAIYETHPFLEMLEPESERPFELRNDYFTDTPHVSREAIVYEGSGSDTGIASYWYVHPLGDILGGLLGAGLRLSHFKEYPHSNREELYDLYEDGPLAIPMCYTLVAVKA”, the protein production is reported as “failed”. In the case of “MTDLIYNDPDFVQFYDIENQDGRADFDYCVRLARDGGSVLDLGCGTGQLAAEMAQGCNVTGVDPASAMLDVARRRTGGDKVDWVVADARTVRLGRRFDLVLLTGHVFQVFLTDEDQRAVLRTIAEHLGPGGRFIFDTRNPAVEAWLEWTPQRSERMVEHPSLGTVRAWYDADWDAASAVVTYSTFYEIPGGRPILGAESKIAFPKKQDLAGMLDDAGLLVEQWLGDWQGEPYADTSPEIIPIGRLR”, the protein production is reported as “failed”. With “MTDNSQFHAASALVQAAHTVSVVGHLRPDADAIGSVAATVAALQQLGKDAVGAIGQLDSMPENLYTIPGASNIKFGDSLPESDLIIVVDCGSIERTGAFESIIVNNPDKVLVVDHHATNPGFGAVNLIDVEAESTTTILYDWFDAMSVQITPDIAHGLYAGLLTDTGCFRWGRPVMHDMAKELMEFGLDIRAISSALLDQTSVDDLRLVGQIVSRIELREAGPYTLAVLVADFDTINGRSRAVVEGLIEMVRAVEGADFGAVFKEYERGVYTVSLRSSNLSVASLAVHLGGGGHIPAAGYTARGTEIEALDTLIEATVTLGESLRSSAHVDVLEHHHHHH” the protein production was “not failed”. In the case of “MTDPADRPLIERIRACRLCADRFAATHTAHEPRPVVWFRPGARLLIAGQAPGARVHASGRPFTDPSGDRLRDWLGIGEETFYDRSRVAVVPMAFCFPGYNSQGADLPPPPVCGKTWHNQVMGELGEMPLSVLVGGHALKYHLGARSPVTETVAAWRDHAPRVFALPHPSWRNTGWLRKNPWFEAELLPVLRARVKEVLNEPDRSANPD”, the protein production is reported as “failed”. In the case of “MTDPEKLTALKKAYAETILNTAKEAAARVMITERKARGYQQELASVRDEALRACLRLKQIYDSKVKEAEMISLQKQQKIEELEAQLGEAEDIVGELRTELRESRYLLEKLANGCQTNLSKEEKAPNEAVSLEVREDSSNHERSVVASVIKPHMSDRDLSINRCSYKENKDPCLYTLPSILSRCREAEVVERNTINGDCADVESLTEARKEEAKENDIELSTTPLSPSEKQCIKFSYKRKHNKDGSNSPEGGGSSSQDDDDDDESRSRRHKTGEKDNAYLDSFTSTEPSRDSRRVAQVARQVSESR”, the protein production is reported as “failed”. For “MTDPLIPVDTYLVDSLPEVWFGAVVFALGMYIVLDGFDFGIGMLYATRTDEHERETFLAAFGPVWDANEVWIVAFGTMLLAAFPRVYSRLLADNYLLALGFVVALVFRGLGPELREQREDERWKRYTDYAFVGGSVFAPLLLGMLAGRWLFAGATLPVVLTGVGLVAVSIVTGAAFLAAKTDSGLASELRSYGVGATVAYLGGVVVLLGTVVATDAGGAASAVLSLPVAAVVALSIVAGLGGSVLARRGRYRAWLASALALPTLLTLLVAVLLYPTVYPPTGLLVREAVVSPLALNLVTVLGFPVLLLVLWYFKFLYGVFSGPIEGEGYGG”, the protein production was “failed”. In the case of “MTDQAVDTGGSQLPGNEQRPAAAPAPTVSQFLGRTRELKELRADIERAGLDTLSGRKAPRARVLLIAGRPGSGRTALAEELVRQVADRYRDGVLRARLTEPDGTPVPTERTARELLAALEVATPPGAAEDDLTEALREALADRRTLLLLDDVAAAEQVDALLPGTPDCLVVAVSEGPLTGIADVRPCTLGGLDTKSALELLGRLTGAVRITVDPRAAEGLVEECAGQPLALVLAGSWLAARPQAAVADLAKQLRSEGDEGPPTARLFRLAYAGLPATAQRILRLLSLAPAGLVDPHTASALAGCSVSAAHTTLDDFAALGLVRLLESPLPQYEVPGSLLPLLRALAESRERPAELQLARARMLERTVRLLQSCRAITETDSIEAREKLLGMPRTLRFPNPRAAADWLRVRQPALLAAARSAVADGELDTLARRLMSQLVRAMVAHFGTQASAPELYGIHRLVLDVAERRNLPREQAAALLNLADLDTRTGRTTEALARYRAALDAGREANDPYATGRAMESVGGAHQELGDYDRAADWYGRALAQRLARDERVDAARLYGRIATAHTYAGRYGEALRNWRSAVAGHRKNGDVAAQARALSELARVQEYAGRPEESLRTCQEAVEWARRADDVRLQAALQLRLADTLEHLGDPAAAKLHRGAAERMLGEELLESDSGAEQAPNACEIRSASSKD”, the protein production is reported as “failed”. In the case of “MTDSKYISIKGARVNNLKNIDVNIPRNKLVVITGLSGSGKSSLAFDTLYAEGQRRYVESLSSYARQFLGRMSKPECDFIKGIPPAIAIEQKVNSRNPRSTVGTSTEIYEYLRLLYARVGKTYSPVSGEEVKKHSIEDIVNCMLSYPEGTRYTVLTQIYLHDGRTLEQQLEIDRKQGFNRLEVNGEMVRIDEYAAGKEDVVYLLVDRMTAAKSKDAISRLTDSAETAMYEGDGMCMLRFYQPDGTTRLHTFSTKFEADGMTFEEPNDQMFSFNSPIGACPVCEGFGKVIGIDEHLVVPNRSLSVYDGAIVCWRGEKMGEWREELIHNAEKFNFPIFTPYYELTDEQRRVLWEGNQYFHGINDFFKMLEENQYKIQYRVMLARYRGKTLCPKCHGTRLKPEAGYVRVGGKNISELVDLPITELQKFFDSLTLNEHDQAVARRILTEINSRIRFLIDVGLGYLTLNRLSNSLSGGESQRINLATSLGSSLVGSLYILDEPSIGLHSRDTDRLVHVLRQLQQLGNTVVVVEHDEEIIRAADYIIDIGPNAGRLGGQVVYEGDMKDLKKGSNSYTVKYLLGEETIPVPEHRRPWNNYIEIKGARENNLKGVDARFPLNVMTVVTGVSGSGKSTLVRDIFYRALKRELDECSERPGEFVSIEGDLRNLRNVEFVDQNPIGKSSRSNPVTYIKAYDEIRKLWADQPLAKQMGYTAGHFSFNNEGGRCEECKGDGTITVEMQFMADLVLECESCHGKRFKADTLEVKFQDKNIYDILEMTVNQAIEFFTEHGQKKVVKKLIPLQDVGLGYIKLGQSSSTLSGGENQRVKLAYYLSQEKADPTLFIFDEPTTGLHFHDIRKLLDAFDALIRRGHSIVIIEHNMDVIKCADYVIDLGPEGGDKGGNIVATGTPEEVAACAASYTGQFLQEKLNHL”, the protein production is reported as “failed”. For “MTDTHTCLTAKDFTSNQEPKWCPGCGDFMVLQQLKNAMAELCLKTEEVVVVSGIGCSSRLPYYINTYGVHGIHGRAMAMASGLKVARPDLSVWVGTGDGDALSIGGNHYIHTVRRNLDINVVLFNNEIYGLTKGQYSPTSKVGLRTVTSPTGVVDYPINTIALTLGAGGTFVARVMDRDGKLMKEIFKRAHNHKGTSIVEIYQNCPIFNDGAFRAFSDKERKDDTTLYLEQGQPLVFGANGSKGIYLDGFKPTVIDLEKSGVSKDDLWIHDENDLIKANILSRFFDDPNSTEEFLPRPFGIFYVEDRFTYEQALSAQIDKAQEKGEGTLEELLAGNSTWTIN”, the protein production was “failed”. For “MTDTTAEPSRPSGRLWAYLWQLHAETKAYLTLDAPAIASNIDSLSESEQQLAREVFPDGGQSTADSDGGSATDAGSRGGDDSSPFDVGGSYSLRQKIGLVLGPLLFAALLFSPTPDGLPAEGQAVAAVTAWVAVWWMSEAIPIPAASLLPIVLFPLAGALPVEPTATSYGHPLVFLFMGGFFLAMAMQRWGLHRRIALRTIKLVGTEPSRLILGFMLATAILSMWVSNSATVMMMVPIALAVIYQTADLIDDSDVDIDTGVGEFSFGIALMLCIAYGASVGGVATLIGTPPNILFAGQAEALFGQSVSFAEWMLYGVPIAALGLVTVYIYVTRIAMTPQFDSLPAGTETIDRELAELGSMSQQEKLVAVVFVGMAAAWIGASLIEPVLDITPPDDADTIVAIGGALVLFTFPTTGENGDQTFLLDWSSAVEIPWGVILLFGGGLAIAAGFSETGLAVWIGEQLQLLEGVQMAAILLAVVVMTIFLTEVTSNTATTAMLMPILGAVAIGISVHPFGLMIAGATAASFAFMLPVATPPNAIVFGSGYITLPQMARVGVGLNVIGIVLITLLALVWLPIAWGIELATLPAEFADAFDS”, the protein production was “failed”. For “MTDVFKDMAFQLKTERLDLNMWEESDAVWLRKLIGERGVEMPTIESVRSSLIEMRKKAIENGISLLTIRRRDEGDFIGYCGLIIGRATLEEPEIAYELFKSAHRKGYATEAASAVLEAAIATGRHRLWSTVGAWNTASFRVLEKLGFHRHHSTYGERGEIVWNVRDL”, the protein production was “failed”. For “MTEAATFHLEMTRQIRAPRERVFDAFTDQAALAAWHCPRGMRVLEASADARVGGRYRLVMGSRDGSQHMVGGEYQKIDRANFLAYTWQWEGGELPEGTRTLIEVTLTDKDGGTLLHMRHSGFPDTATRDAHTSGWQSVFNRLSDYVDAEGSAGTVTVYGDGRSTYVRTVRMALAEKGIAYKLDPLTPRDPELLKHNPFGRIPAFTDGPLEFFETRAILSYIEEAFDGPSLISQAGPTARARCEQWISLINCHAYDAMVRRYVLQYVFPSGENGQPDRKTIDAALPDIAKQLDALEHAYGGRDFLAGNTLTMADLFFAPIVEYLGRFPESAAMLESRPNIRRAHAAMRARPSYAATQPNFG”, the protein production was “failed”. With “MTEDTADSGTGGRGPTRRHLVRRALALGGALAVAPFPAGPAKAVPPPRHPHRTLRHGSPERAGLLPDHLRGLVTDAESFLGPSPTHPWYAGAVLLAGRGDTVALHQPIGTAVRYSAYDAKTDTGVEFPAERQIPMATDTVFDLASVSKLFTSLLAVQQLERGALELEARVASYLPDFAGAGKQDVTIRQLLTHTSGFRAWLPLYKAPSRAEKLRLIWNEAPLSPPGTKYLYSDLNLISLQLVLEEITGHPLDALLRDEITAPLGLRSTRYNPPAAWKPRIAATEDARPPWSGLDRGLVWGEVHDENAFGFGGVAGHAGVFSCAWDLAVLGRTLLNGGTYGHTRILAPESVELLFTDFNTAFPGDEHGLGFELYQHWYMGAMATPRTAGHTGFTGTSLVLDPTTDSFLIVLGNSVHPVRTWRSGSAPRAAAGNHLARAVQVRPARGRTSWFSGMATAASATLTLPELDTAGTADTAETTGTADSTTADSGGRLRCALWWDTEPRSDTLFLEASADDGASWQPVPFTTACDGEEAREHPTGSVTGWSGRVWHRLHADLPRARRLTLRWRYTTDRLYVGRGAYVDAVRVESGGRVLFDEARPTDAARIEAAGWTPSEN” the protein production was “failed”. In the case of “MTEHRPAIELEEIPTLLERIEGYKGRSRLTQLAIKLNLLIFIRSSELRFARWSEIDFKSGLWVIPEQREAIKGIKHSDRGAKMRRKHYVPLCEQALVILGELKDLTYDVNGDDGFILTGCYDAMKPMSENTINKALRKMGYDTKTDLCGHGFRTLACSALIESGIWPEDVVELQMSHMEKNNVRAAYTHKAKHLEQRRLMLQWWADFLDANGSGMVRPFEFAQGATQYLEHHHHHH”, the protein production is reported as “failed”. In the case of “MTEIKYKVITKDAFALPYTIIKAKNQPTKGVIVYIHGGGLMFGKANDLSPQYIDILTEHYDLIQLSYRLLPEVSLDCIIEDVYASFDAIQSQYSNCPIFTFGRSSGAYLSLLIARDRDIDGVIDFYGYSRINTEPFKTTNSYYAKIAQSINETMIAQLTSPTPVVQDQIAQRFLIYVYARGTGKWINMINIADYTDSKYNIAPDELKTLPPVFIAHCNGDYDVPVEESEHIMNHVPHSTFERVNKNEHDFDRRPNDEAITIYRKVVDFLNAITMV”, the protein production is reported as “not failed”.
